These results are taken from publication PMC11568203.

One test has as its target KLHDC10(41-C)-EloB/C (UniProt Q6PID8). Nature of the test: SPR; Biacore T200; 10xHis-KLHDC10-EloB/C captured on a Ni-NTA chip; UB variants as analytes, 2 uM to 0.125 uM; 25 mM Tris, 200 mM NaCl, 0.1% Tween20, pH 7.4, 20 °C; multi-cycle kinetics, 1:1 binding model; two replicates.
The target of test [1] is KLHDC10^41-C-EloB/C with a 10X Histidine tag on EloC (SPR) (UniProt Q6PID8). Nature of the test: SPR; Biacore T200; His-tagged KLHDC10 complex captured on Ni-NTA chip (about 300 RU); ubiquitin variants as analytes 2 uM to 0.125 uM, multi-cycle kinetics; 25 mM Tris, 200 mM NaCl, 0.1% Tween20, pH 7.4; 20 °C; 1:1 binding model.

Where “and” joins values, the source holds several entries; their conditions need not be identical. Equal entries are not always repeated.

Consider “ubiquitin (from UniProt P0CG48 1-76) (natural protein)”, for which the Kd with KLHDC10(41-C)-EloB/C is 319 nM and 393 nM; in test [1], 300 nM.
